# Test results taken from paper doi:10.1101/2025.10.31.685832.
# Target: MelA1 (Candidatus Melainabacteria bacterium isolate SJ512)
# Assay: SEC; size-exclusion chromatography of MelA1; column and buffer not told
substance,measurement,value
MelA1 (natural protein),stoichiometry N,2
